Where a chain is given by its changes, count along the chain named.

The text below walks through data of paper PMC12203913, “XPC-RAD23B enhances UV-DDB binding to DNA to facilitate lesion search in nucleotide excision repair” (Nucleic Acids Research, 2025).

In series [1] the target is T1, UV-DDB (DDB1-DDB2);XPC-RAD23B (Homo sapiens;Homo sapiens, UniProt Q16531;Q92466;Q01831;P54727 1-1140;1-427;1-940;1-409, |). Put plainly: single-molecule DNA curtain. The conditions noted are these: 0.2 nM UV-DDB, 0.4 nM XPC-RAD23B, 3-fold more at CPD sites than random sites, three CPDs around 33.5 kbp (33513-33630), EMSA: 50 mM Tris-HCl pH 7.5, 100 mM NaCl, 0.1 mg/ml BSA, 1 mM DTT, 23°C, 45 min, DNA curtains: 10 mM Tris-HCl pH 8.0, 1 mM EDTA, 0.16% BSA, 0-100 mM …. (A gel shift assay detects complexes by their altered migration in electrophoresis.)

In the next series the target is UV-DDB (DDB1-DDB2) (Homo sapiens, UniProt Q16531;Q92466 1-1140;1-427). Put plainly: EMSA; 4 nM DNA, no competitor; EMSA: 50 mM Tris-HCl pH 7.5, 100 mM NaCl, 0.1 mg/ml BSA, 1 mM DTT, 23°C, 45 min; DNA curtains: 10 mM Tris-HCl pH 8.0, 1 mM EDTA, 0.16% BSA, 1 mM DTT, 0-100 mM NaCl, 23°C. To be noted: protein: recombinant, tags: 3xHA at N-terminus of DDB1 (1xFLAG removed by PreScission), copies: 1;1, label: 5'-FAM on strand 2, blunt.

The target in a further series is XPC-RAD23B (Homo sapiens, UniProt Q01831;P54727 1-940;1-409). The series is described as above. To be noted: protein: recombinant, tags: 3xFLAG at N-terminus of XPC, copies: 1;1, label: 5'-FAM on strand 2, blunt.
The target of series [2] is T1, UV-DDB (DDB1-DDB2);XPC-RAD23B. Put plainly: EMSA; 2 nM XPC-RAD23B, UV-DDB titrated, 10 nM DNA; EMSA: 50 mM Tris-HCl pH 7.5, 100 mM NaCl, 0.1 mg/ml BSA, 1 mM DTT, 23°C, 45 min; DNA curtains: 10 mM Tris-HCl pH 8.0, 1 mM EDTA, 0.16% BSA, 1 mM DTT, 0-100 mM NaCl, 23°C. The conditions noted are these: protein: recombinant;recombinant; tags: 3xHA at N-terminus of DDB1 (1xFLAG removed by PreScission);3xFLAG at N-terminus of XPC; copies: 1;1;1;1; label: 5'-FAM on strand 2; blunt; T21 of strand 1 faces T of strand 2 (T-T mismatch at the CPD).

For series [3] the target is unchanged. Put plainly: EMSA; 15 nM XPC-RAD23B, UV-DDB titrated, 10 nM DNA; co-bound band confirmed by native western; EMSA: 50 mM Tris-HCl pH 7.5, 100 mM NaCl, 0.1 mg/ml BSA, 1 mM DTT, 23°C, 45 min; DNA curtains: 10 mM Tris-HCl pH 8.0, 1 mM EDTA, 0.16% BSA, 1 mM DTT, 0-100 mM NaCl, 23°C. To be noted: protein: recombinant;recombinant; tags: 3xHA at N-terminus of DDB1 (1xFLAG removed by PreScission);3xFLAG at N-terminus of XPC; copies: 1;1;1;1; label: 5'-FAM on strand 2; blunt; T21 of strand 1 faces T of strand 2 (T-T mismatch at the CPD).

Series [4] has the same target. Put plainly: EMSA; 2 nM XPC-RAD23B increases UV-DDB binding; EMSA: 50 mM Tris-HCl pH 7.5, 100 mM NaCl, 0.1 mg/ml BSA, 1 mM DTT, 23°C, 45 min; DNA curtains: 10 mM Tris-HCl pH 8.0, 1 mM EDTA, 0.16% BSA, 1 mM DTT, 0-100 mM NaCl, 23°C. The conditions noted are these: protein: recombinant;recombinant; tags: 3xHA at N-terminus of DDB1 (1xFLAG removed by PreScission);3xFLAG at N-terminus of XPC; copies: 1;1;1;1; label: 5'-FAM on strand 2; blunt.

Series [5] has as its target UV-DDB (heterodimer of DDB1 and DDB2) (human, UniProt Q16531 1-1140; Q92466 1-427). Put plainly: cell-based or functional assay.
The mark [6] stands for this setting: T21 of strand 1 faces T of strand 2 (T-T mismatch at the CPD).

T1 sequence (Q16531 whole entry, chain 1 of 2): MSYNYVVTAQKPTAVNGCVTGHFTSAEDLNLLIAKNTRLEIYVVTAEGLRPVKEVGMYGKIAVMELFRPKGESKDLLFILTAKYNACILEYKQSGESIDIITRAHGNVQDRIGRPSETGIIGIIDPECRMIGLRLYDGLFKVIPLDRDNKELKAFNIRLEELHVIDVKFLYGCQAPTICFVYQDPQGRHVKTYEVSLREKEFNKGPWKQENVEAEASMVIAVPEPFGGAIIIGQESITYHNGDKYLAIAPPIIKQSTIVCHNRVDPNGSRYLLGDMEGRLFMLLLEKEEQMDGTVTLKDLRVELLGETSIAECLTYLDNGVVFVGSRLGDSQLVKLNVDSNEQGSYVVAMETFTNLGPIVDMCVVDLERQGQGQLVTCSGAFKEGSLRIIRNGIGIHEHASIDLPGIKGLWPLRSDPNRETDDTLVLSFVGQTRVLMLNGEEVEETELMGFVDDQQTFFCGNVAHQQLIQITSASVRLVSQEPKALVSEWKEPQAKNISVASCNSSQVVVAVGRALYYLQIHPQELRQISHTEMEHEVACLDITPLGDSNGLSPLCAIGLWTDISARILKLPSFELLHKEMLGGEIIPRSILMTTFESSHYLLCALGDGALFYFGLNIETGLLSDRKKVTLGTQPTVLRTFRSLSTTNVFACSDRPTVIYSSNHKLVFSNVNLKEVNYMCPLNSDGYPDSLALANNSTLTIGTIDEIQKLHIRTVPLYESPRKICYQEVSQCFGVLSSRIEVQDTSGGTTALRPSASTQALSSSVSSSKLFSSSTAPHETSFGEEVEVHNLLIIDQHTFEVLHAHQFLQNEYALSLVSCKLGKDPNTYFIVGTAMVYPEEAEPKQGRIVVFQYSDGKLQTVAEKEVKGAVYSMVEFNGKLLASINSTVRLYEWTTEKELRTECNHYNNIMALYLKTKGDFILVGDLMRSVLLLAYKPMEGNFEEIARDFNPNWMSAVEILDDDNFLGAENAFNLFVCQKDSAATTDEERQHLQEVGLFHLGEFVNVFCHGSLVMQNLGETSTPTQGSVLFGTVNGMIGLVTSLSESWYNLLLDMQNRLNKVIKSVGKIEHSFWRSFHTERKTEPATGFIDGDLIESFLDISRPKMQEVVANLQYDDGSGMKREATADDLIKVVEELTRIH
T1 sequence (Q92466 whole entry, chain 2 of 2): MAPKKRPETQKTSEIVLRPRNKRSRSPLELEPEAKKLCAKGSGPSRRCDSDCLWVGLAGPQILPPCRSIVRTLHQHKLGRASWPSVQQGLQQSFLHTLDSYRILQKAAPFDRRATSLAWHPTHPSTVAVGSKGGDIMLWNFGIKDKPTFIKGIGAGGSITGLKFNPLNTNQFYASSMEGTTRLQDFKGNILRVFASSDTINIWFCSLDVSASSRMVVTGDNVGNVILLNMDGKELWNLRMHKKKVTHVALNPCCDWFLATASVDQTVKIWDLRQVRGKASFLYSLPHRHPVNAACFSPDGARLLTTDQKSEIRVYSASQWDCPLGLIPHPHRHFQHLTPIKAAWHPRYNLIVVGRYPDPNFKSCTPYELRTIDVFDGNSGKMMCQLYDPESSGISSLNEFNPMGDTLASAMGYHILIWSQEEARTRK
Sequence of UV-DDB (DDB1-DDB2) (Q16531 whole entry, chain 1 of 2): as the sequence (Q16531 whole entry, chain 1 of 2) above
Sequence of UV-DDB (DDB1-DDB2) (Q92466 whole entry, chain 2 of 2): as the sequence (Q92466 whole entry, chain 2 of 2) above
Sequence of UV-DDB (heterodimer of DDB1 and DDB2) (Q16531 whole entry, chain 1 of 2): as the sequence (Q16531 whole entry, chain 1 of 2) above
Sequence of UV-DDB (heterodimer of DDB1 and DDB2) (Q92466 whole entry, chain 2 of 2): as the sequence (Q92466 whole entry, chain 2 of 2) above

For 3x CPD λ-DNA (λ-I3), the binding signal (fold bound UV-DDB vs no XPC-RAD23B) in series [1] was determined as 5.5.

B1: CPD-containing 39 bp DNA (λ-I3_CPD / λ-I3_comp_FAM) (dsDNA)
DNA 1: TGCATGCGGCCGCTCTTCCCTTGGTGCGATCGCTCTTCG
DNA 2: CGAAGAGCGATCGCACCATGGGAAGAGCGGCCGCATGCA
modifications: cyclobutane pyrimidine dimer T21^T22 in strand 1; 5'-phosphate on strand 1
What is called Kd is the concentration at which binding is half-saturated. Regarding B1, the Kd with UV-DDB (DDB1-DDB2) (setting [6]) is around 5 nM; in the series with XPC-RAD23B (setting [6]), around 7 nM. In addition, the results for the binding signal in series [2] and in series [3] were 2.5 fold UV-DDB affinity vs no XPC-RAD23B and ~4 fold UV-DDB binding vs no XPC-RAD23B, respectively.

B2: undamaged 39 bp DNA (λ-I3_Dup / λ-I3_comp_FAM) (dsDNA)
DNA 1: B1 DNA 1 with T21A
DNA 2: B1 DNA 2
modifications: 5'-phosphate on strand 1
Consider B2, for which the dissociation constant (Kd) in the series with UV-DDB (DDB1-DDB2) is around 26 nM; with XPC-RAD23B it was around 9 nM. Besides, in series [4], the binding result was “binds”.

B3: XPC-RAD23B (complex, human)
chain 1: MARKRAAGGEPRGRELRSQKSKAKSKARREEEEEDAFEDEKPPKKSLLSKVSQGKRKRGCSHPGGSADGPAKKKVAKVTVKSENLKVIKDEALSDGDDLRDFPSDLKKAHHLKRGATMNEDSNEEEEESENDWEEVEELSEPVLGDVRESTAFSRSLLPVKPVEIEIETPEQAKTRERSEKIKLEFETYLRRAMKRFNKGVHEDTHKVHLLCLLANGFYRNNICSQPDLHAIGLSIIPARFTRVLPRDVDTYYLSNLVKWFIGTFTVNAELSASEQDNLQTTLERRFAIYSARDDEELVHIFLLILRALQLLTRLVLSLQPIPLKSATAKGKKPSKERLTADPGGSSETSSQVLENHTKPKTSKGTKQEETFAKGTCRPSAKGKRNKGGRKKRSKPSSSEEDEGPGDKQEKATQRRPHGRERRVASRVSYKEESGSDEAGSGSDFELSSGEASDPSDEDSEPGPPKQRKAPAPQRTKAGSKSASRTHRGSHRKDPSLPAASSSSSSSKRGKKMCSDGEKAEKRSIAGIDQWLEVFCEQEEKWVCVDCVHGVVGQPLTCYKYATKPMTYVVGIDSDGWVRDVTQRYDPVWMTVTRKCRVDAEWWAETLRPYQSPFMDREKKEDLEFQAKHMDQPLPTAIGLYKNHPLYALKRHLLKYEAIYPETAAILGYCRGEAVYSRDCVHTLHSRDTWLKKARVVRLGEVPYKMVKGFSNRARKARLAEPQLREENDLGLFGYWQTEEYQPPVAVDGKVPRNEFGNVYLFLPSMMPIGCVQLNLPNLHRVARKLDIDCVQAITGFDFHGGYSHPVTDGYIVCEEFKDVLLTAWENEQAVIERKEKEKKEKRALGNWKLLAKGLLIRERLKRRYGPKSEAAAPHTDAGGGLSSDEEEGTSSQAEAARILAASWPQNREDEEKQKLKGGPKKTKREKKAAASHLFPFEQL
chain 2: MQVTLKTLQQQTFKIDIDPEETVKALKEKIESEKGKDAFPVAGQKLIYAGKILNDDTALKEYKIDEKNFVVVMVTKPKAVSTPAPATTQQSAPASTTAVTSSTTTTVAQAPTPVPALAPTSTPASITPASATASSEPAPASAAKQEKPAEKPAETPVATSPTATDSTSGDSSRSNLFEDATSALVTGQSYENMVTEIMSMGYEREQVIAALRASFNNPDRAVEYLLMGIPGDRESQAVVDPPQAASTGAPQSSAVAAAAATTTATTTTTSSGGHPLEFLRNQPQFQQMRQIIQQNPSLLPALLQQIGRENPQLLQQISQHQEHFIQMLNEPVQEAGGQGGGGGGGSGGIAEAGSGHMNYIQVTPQEKEAIERLKALGFPEGLVIQAYFACEKNENLAANFLLQQNFDED
B3: in series [5], the “EMSA: binding of UV-DDB (0-25 nM) to DNA with 15 nM XPC-RAD23B against none” value is around 4 fold.
